Laboratory results published in patent US20220213151A1.
pKd: −log10 of the molar value. Like-named read-outs stand apart in the source and are kept apart here.

Columns and labels:
[1] = biological target: rhu EGFR (Fc) (human (rhu)) (UniProt P00533)
[2] = biological target: rhu EGFR (Fc) (human (rhu)) (UniProt P00533); assay: pH 6

## A-dmDT390-EGF (other; other documents disagree on this pair)
[1]
  pKd: 8.24
[2]
  pKd: 6.99
